The values below come from the nanobody polyreactivity screen of Harvey et al. (2022).

A short description of this series: yeast display, Sf9 membrane polyspecificity reagent, FACS + sequencing; frameworks hold sequencing errors. The method in brief: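 In a synthetic yeast display library (Saccharomyces cerevisiae BJ5465), nanobody expression was induced with galactose for 36–48 hours. FACS gates were set low and high (top ~1%) using anti-HA fluorescence for expression and streptavidin fluorescence for binding of the Sf9 membrane reagent. Each polyreactivity label is drawn from the gate of origin.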
For the sequence “QVQLVESGGGLVQAAGSLRLSCAAYGGIFYWYAMGWYRQAPGKVRELVAVITLSGGSTDYADSVKGRFTISRDNAKNTVSLQMNSLKPEDTAFYYCAAEAYSYYPGTYEDDYWGQGTQVTVSS”, the “polyreactivity (PSR sort gate)” value is reported as “low polyreactivity”.
“QVQLVESGGGLVQAAGSLRLSSAASGRTFVGYSMGWYRQAPGKERELVAAIHWSVGITYYADSVKGRFTISRDNAKNTVYLQMNSLKPEDTAVYYCAADGYDEPDLLVYEPWREDEYWGQGTQVTVSA”: the “polyreactivity (PSR sort gate)” value is given as “low polyreactivity”.
On to “QVQLVESGGGLVQAAGSLSLICAASGIIFQRSAKGWYRQAPVKERELVATLTISGGSTYYADSVKGRFTISREYAKNTVYLQMNRLKPEDTAVYYCAAALYYPTVRRRFGSDYYWGQGTQVTVSS”, for which the “polyreactivity (PSR sort gate)” value was “low polyreactivity”.
As to “QVQLVESGGGLVQAGASIRLSCAASGSTFYTYDMGRYIQAPGKERELVAVITPRSGTTSYADSVKGRFTISRDYAKNTVYLQMNSLKPEDTAVYYCNVYIPYSYGEYDYWGQGTQVTVSS”, the “polyreactivity (PSR sort gate)” value was “high polyreactivity”.
The same measure for “QVQLVESGGGLVQAGASLRLICAASGITFDWYGMGWYRHAPGKERELVATITGSGDSTNYADSVKGRFTISRDNAQNTVYLQMNSLKPEDTAVYYCAAPTSYDQFGYEYWGQGTIVTVSS”: “low polyreactivity”; for “QVQLVESGGGLVQAGASLRLSCAAAGITIGSNVMGWYRQAPRKERELVAAISQCGGRTYYADSVKGRFTISRDYAKNTVYLQMNSMKPEDTAVYYCAKRQRSFYGRPMCDYWGQGTQVTVSS”: “high polyreactivity”.
Take “QVQLVESGGGLVQAGASLRLSCAASGFILYYYAMGWYRQAPGKERELVAAISARGGSTYYADSVKGRFTISRDNAKNTVYLQMNSLKPVDTAVYYCKKAGGYTGYTRRYEYWGQGTQVTVSS”: the “polyreactivity (PSR sort gate)” value is “high polyreactivity”.
In the case of “QVQLVESGGGLVQAGASLRLSCAASGFTLADNTMGWYRQAPGKERELVAAITSGASTYYADSVKGRFTISRDNAKNTVYLQMKSLKPEDTAVYYCAALYYWRSGYDYWGQGTQVTVSS”, the “polyreactivity (PSR sort gate)” value is on record as “low polyreactivity”.
The same measure for “QVQLVESGGGLVQAGASLRLSCAASGGTIAPYAMGWYRQAPGNVRELVAAITSAGTRTYYADSVKGRFTISRENAKNTVYLQMNRLKPEDTAVYYCAAGGGHSMYYWGKGTQVTVSS”: “high polyreactivity”.
For the sequence “QVQLVESGGGLVQAGASLRLSCAASGHIFDSYAMGWYRQAPGKERELVAAITSGGSTYYADSVKGRFTISRDYAKNTVYLQMNSLKSEDTAVYYCATELGAAGDDSWGQGTQVTVSS”, the “polyreactivity (PSR sort gate)” value is given as “low polyreactivity”.
The same measure for “QVQLVESGGGLVQAGASLRLSCAASGIILHYYAMGGYRQAPGKERELVAAISARGGRTYYADSVKGRFTISRDNAKNTVYLQMNSLKPEDTAVYYCARYLRRSSPSPGYGYWGQGTQVTVSS”: “high polyreactivity”; for “QVQLVESGGGLVQAGASLRLSCAASGITFLDYAMGWYRQAPGTEREMVAVITWNDGSTYYADSVKGRFTISRDNAKNTVYLQMNSLKPEDTAVYYCAAEYADSWSAFDWNYYYWGQGTQVTVSS”: “high polyreactivity”.
As for “QVQLVESGGGLVQAGASLRLSCAASGLIFVSNAMGWYRQAPGKERELVAAISWSGSRTYYADSVKGRFTISRDNAKINVYLHMTSLKPEDTAVFYCNAVRRGLPVVGAYDYWGQGTQVTVSS”, the “polyreactivity (PSR sort gate)” value is reported as “high polyreactivity”.
With “QVQLVESGGGLVQAGASLRLSCAASGRIFNGYAMGWYRQAPWKERELVATIRYRGDNTYYADSVKGRFTISRDNAKNTVYLQMNSLKPEDTAVYYCNARVWYTSTSSWAKRYNYWGQGTQVTVSS”, the “polyreactivity (PSR sort gate)” value was “high polyreactivity”.
The same measure for “QVQLVESGGGLVQAGASLRLSCAASGRIFSGNAMGWYRQAPGKERELVAAISRGGSTDYADSVKGRFTSSRDNAKNTVYLQMNSLKPEDTAVYYCADRVNGKRRRYDYWGQGTLVTVSS”: “high polyreactivity”.
Take “QVQLVESGGGLVQAGASLRLSCAASGRTFAWYAMGWYRQAPGKERELVAAISSGGSTYYADSVKGRFTISRDNAKISVYLQMNSLKPEDTAVYDCAAEWHYIYAYDYWGQGTKVTVSS”: the “polyreactivity (PSR sort gate)” value is on record as “low polyreactivity”.
Turning to “QVQLVESGGGLVQAGASLRLSCAASGRTFAYNAMGWSRQAPGKERELVATISNGGTTNYADSVKGRFTISRDNAKNTVYLQMNSLKPEDTAVYYCNRRSYTQVLMDYWGQGTQVTVSS”, the “polyreactivity (PSR sort gate)” value was “high polyreactivity”.
To “QVQLVESGGGLVQAGASLRLSCAASGRTFGRYTMGWYRQAPGKEREFVARINWNGGGTYYADSVKGRFTISRDNAKNTVYLQMNSLKPEDTAVYYCNARKRGARFILGYDYWGQGTQVTVSS” belongs “low polyreactivity”; to “QVQLVESGGGLVQAGASLRLSCAASGRTFRYYAMGWYRQAPGKERELVAAINTGSSTYYADSVKGRFTISRDNAKYTVYLQMNSLKPEDTAVYYCNVFQGTRYGYWGQGTKVTVSS”, “low polyreactivity”.
On to “QVQLVESGGGLVQAGASLRLSCAASGRTFSENAMGWYRQAPGKERELVAAISGSGGRTYYADSVKGRFTISRDNEKNTVYLQMKSLKPEVTAVYYCAKVTRYGSTYDYWGQGTQVTVSS”, for which the “polyreactivity (PSR sort gate)” value is recorded as “high polyreactivity”.
To “QVQLVESGGGLVQAGASLRLSCAASGRTLKVYAMGWYRQAPGKERELDAAINNGGSTNYADSVKGRFTISRDNAKNTVYLQMNSLKPEDTAVYYCNAVYYARYRKYTYYYWGQGTQVTVSS” belongs “high polyreactivity”; to “QVQLVESGGGLVQAGASLRLSCAASGSIFGGYGMGWYRQAPGKERELVAAITSRVGSTYYADSVKGRFTSSRDNAKNTVYLQLNSLNPEDTAVYYCAAKRIYSWGRWTGDYWGQGTQVTVSS”, “high polyreactivity”.
With “QVQLVESGGGLVQAGASLRLSCAASGSIFRVYAMGWYRQAPGKERELVATIDTSTDSTYYADSVKGRFTISRDNAKNTVYIQMNSLKPEDTAVYYCNARGTYARYFQYDYSGQGTQVTVSS”, the “polyreactivity (PSR sort gate)” value is “low polyreactivity”.
Regarding “QVQLVESGGGLVQAGASLRLSCAASGSIFSWYTMGWYRQAPGKERELVARITTSGGTTLYADSVKGRFTISRDNAKNTVYFQMNSLKPEDTAVYYCAADRSPYWRGYVRYNYWGQGTQVTVSS”, the “polyreactivity (PSR sort gate)” value is listed as “high polyreactivity”.
In the case of “QVQLVESGGGLVQAGASLRLSCAASGSIIDDYAMGWYRQAPGKERELVAAITYSGGTTYYADSVKGRFTISRDNAKNTVYLQLNSLKREDTAVYYCAAEWRVYYATYGYWGQGTQVTVSS”, the “polyreactivity (PSR sort gate)” value was “high polyreactivity”.
For the sequence “QVQLVESGGGLVQAGASLRLSCAASGSTFVIYTMGWYRQAPGKERDLVAAISWSGGITRYADSVKGRFTISRDNGKNTVYLQMNSLKPEDTAVYYCNASQWPSRFDYWGQGPQVTVSS”, the “polyreactivity (PSR sort gate)” value is on record as “low polyreactivity”.
“QVQLVESGGGLVQAGASLRLSCAASGSTLSYAMGWYRQAPGKERELVAAISRSGGSTYYADSVKGRFTISRDNAKNTVYLLMNSLKPEDTAVYYCAADPYPSYANGGYYWGQGTQVTVSS”: the “polyreactivity (PSR sort gate)” value was “low polyreactivity”.
On to “QVQLVESGGGLVQAGASLRLSCAASVSTFGVNAMGCYRQAPGKERELVAAISSSGSSTYADSVKGRFTISRDNAKNTVYLQMNSLKPEDTAVYYCNITTLLSVVYDYWGQGTQVNVSS”, for which the “polyreactivity (PSR sort gate)” value is “low polyreactivity”.
Turning to “QVQLVESGGGLVQAGASLRLSCAAYGNINAYYAMGWYRQAPGKERELVAAITDSGGNTFYADSVKGRFTISRDNAKNTVYLQMNSLTPADSAVYYCADDPDGWGFVYPRYDYWGQCTQVTVSS”, the “polyreactivity (PSR sort gate)” value is “low polyreactivity”.
Take “QVQLVESGGGLVQAGASLRLSCAGSGIIFTRYAMGWYRQAPGKERELVAAITRNGVSTYYADSVKGRFTISRDNAKNTVYLQMNSLKPEDTAVYYCNTYVLRRYAYGYWGQGTQVTVSS”: the “polyreactivity (PSR sort gate)” value is “high polyreactivity”.
Regarding “QVQLVESGGGLVQAGASLRLSCASSGSIFPGYDMGWYRQAPGKEREMVAAITTGGSTYYADSVKGRFTISRDNAKNTVYLQMNSLKPEDTAVYYCAAVYTGSGKRYYKGYYWGQGSQVTVSS”, the “polyreactivity (PSR sort gate)” value is given as “low polyreactivity”.
In the case of “QVQLVESGGGLVQAGASRRLSCAASVFTFGDNAMGWSRQATGKDRELVDAITSSGSTNYADSVKGRFTMSRDIAKNTVYLQLNSLTQEDTAVNYCNAEDSVDAPVYKDLGSEYDSWGQGTQVTVSS”, the “polyreactivity (PSR sort gate)” value is given as “low polyreactivity”.
To “QVQLVESGGGLVQAGCILRLSCAASGRIYVKAMGCYRQPPGIERELVAAIRSGGSTNYADSVKGLFTISRDNAKNTVYLQMNSLKPEDTAVYYCDAPYRLSKYDYWGQGTQVTESS” belongs “high polyreactivity”; to “QVQLVESGGGLVQAGCSLRITCAASGYTFYDYAMGWYRQAPRKERELVAAISSSGGSTYYAHSVKGRFTISRDTAKNTVYLQMISLKPEDTAVYYCDVRARRWRYNYWGQGTQVTVSS”, “high polyreactivity”; to “QVQLVESGGGLVQAGCSLRLSCAACGSIFGPYSMGWYRQAPAKEREFVAAISRSGTSTNYADSVKGRFTISRDNAKNTVYLQMNSLKPEDTAVYYCATAAFIVGSSRTYDYWGQGTQVTVSS”, “high polyreactivity”.
The same measure for “QVQLVESGGGLVQAGCSLRLSCAASGFTFDGYAMVSYRQAPGKERELVAAISDSGDSTYYADSVKGRFTISRDNAKNTVYLQMISLKPEDTADYYCAAALGYYWSDYFAYDYWGQGTQVTVSS”: “low polyreactivity”; for “QVQLVESGGGLVQAGCSLRLSCAASGFTFIQYAMGWYRPAPGKERELVAAITRSGGRTYYADSVKGRFTISRDNAKNTVYLQMNSLKPEDTAVYYCNAVSRIYPGDEFGYWGQGTQVTVSS”: “high polyreactivity”.
On to “QVQLVESGGGLVQAGCSLRLSCAASGRIFDTYAKGWYRQAPGKERELVATITAGTSTNYADSVKGRFTISRDNAKNTVYLKMNCLKPEDTAVYYCAASKYGSPPYRSYVYWGQGTQVSVSS”, for which the “polyreactivity (PSR sort gate)” value is given as “high polyreactivity”.
With “QVQLVESGGGLVQAGCSLRLSCAASGRIFSRNAMGWYRQAPGKERELVAVITKRGGSTYYADSVKGRFTISRDKAKNTVYLQMNSLKPEDTAVYYCNAVPRRGIAFNHWGQGTHVTVSS”, the “polyreactivity (PSR sort gate)” value is listed as “high polyreactivity”.
As for “QVQLVESGGGLVQAGCSLRLSCAASGRIFTTYAMGWYRQAPGKERELVASIDSRGDSTYADSVKGRFTISRDNAKNTVYLQMNSLKPEDTAVYYCAADSWYTWFDSWGQGTQVTVSS”, the “polyreactivity (PSR sort gate)” value was “low polyreactivity”.
To “QVQLVESGGGLVQAGCSLRLSCAASGRIFVKYTMGWYRQAPGKERELVAAIDFDTDSKYYADSVKGRFTFSRDNAKNTVYFQMNSLNPEDTAVYYCAADSYYYGYQGQTQYGWVWYDYWGQVTQVTVSS” belongs “low polyreactivity”.
